{"source": "patent US20230287402A1", "molecular_target": "GFP-60mer nanocages", "assay": "absorbance at 490 nm and 570 nm of the complex purified by size exclusion chromatography", "data": [{"substance": "GBP-mScarlet, purified fusion of the anti-GFP nanobody and mScarlet (VHH)", "values": [{"measurement": "ratio GFP/mScarlet in the purified complex", "result": 0.95}]}]}
